Measurements published in publication PMC12746075, “Twinfilin modulates tissue contractility through uncapping of capping protein in C. elegans” (Development (Cambridge, England), 2025).

Target: T1, biotinylated SNAP-tagged C. elegans heterodimeric capping protein (CAP-1 and CAP-2) (C. elegans, UniProt P34685 1-282; P34686 1-270, biotin (benzylguanine-biotin on the SNAP tag; subunit that carries the tag not stated) | biotin (benzylguanine-biotin on the SNAP tag; subunit that carries the tag not stated))
T1 construct: CAP-1, capping protein subunit of C. elegans; CAP-2, capping protein subunit of C. elegans; only one SNAP tag is meant for the heterodimer; also called CP; SNAP-CP; source: E. coli BL21 DE3, purified (HisTrap, size-exclusion chromatography Superose 6), labeled with benzylguanine-biotin; not shown: His tag (from the HisTrap chromatography)
T1 sequence (looked up) 1: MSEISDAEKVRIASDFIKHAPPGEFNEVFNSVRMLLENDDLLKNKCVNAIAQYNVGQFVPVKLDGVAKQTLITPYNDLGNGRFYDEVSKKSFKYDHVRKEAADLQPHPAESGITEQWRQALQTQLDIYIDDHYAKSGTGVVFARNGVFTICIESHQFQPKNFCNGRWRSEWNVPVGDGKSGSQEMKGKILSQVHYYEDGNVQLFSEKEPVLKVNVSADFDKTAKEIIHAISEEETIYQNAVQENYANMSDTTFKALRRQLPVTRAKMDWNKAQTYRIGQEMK
T1 sequence (looked up) 2: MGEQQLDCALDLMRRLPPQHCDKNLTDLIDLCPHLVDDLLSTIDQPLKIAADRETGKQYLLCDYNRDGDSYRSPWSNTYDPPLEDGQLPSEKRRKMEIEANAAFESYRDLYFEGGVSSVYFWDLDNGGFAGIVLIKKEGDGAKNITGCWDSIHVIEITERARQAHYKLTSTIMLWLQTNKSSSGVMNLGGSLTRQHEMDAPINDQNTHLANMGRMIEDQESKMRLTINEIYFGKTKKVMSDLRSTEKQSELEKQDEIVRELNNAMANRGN
Test: microfluidics-assisted TIRF microscopy (filament capture and uncapping); biotinylated SNAP-CP anchored to the coverslip surface, preformed Alexa-488-labeled ADP-actin filaments captured; filament detachment monitored in TIRF buffer (10 mM imidazole pH 7.4, 50 mM KCl, 1 mM MgCl2, 1 mM EGTA, 0.2 mM ATP, 10 mM DTT) with and without TWF-2; single-exponential fit
Conditions: both partners purified

B1: C. elegans TWF-2 (6×His-tagged), recombinant (natural protein, UniProt Q20173 1-333, looked up)
chain: MACQTGIRANAALRNALNLGKQAKLRLIKIVVNNEEMTPNYEFAGTANWRDDWRACLPDCVDAYEPCFILFRLNTITEWVLITFVDDRAPVREKMLLAATCATFKSEFGQCYIEHEKHVTDLKDLTLNAFEAWLKAKTELGPMSEVERELHNAQQERAAIAHAGPQHMKGVAFPVDRNAEEALRQLASQKLSFVQLSVDTLNEAIKLEGTLESLEPSQLASKVPRDKPRYTFYNFDHTWEGVPQQCTLFIYSLPSSGSSIKERMLYSSCKGPFLSAAQNQYGVVITNKMEVDARDDLSEKALLEVIHPLPVEAPKQFSRPAPPRAGPRRITKV
notes: TWF-2, the sole twinfilin of C. elegans, recombinant; also called twinfilin; source: E. coli BL21 (pRare), purified (Ni-NTA, size-exclusion chromatography Superdex 75 Increase)
fold acceleration of uncapping of CP from barbed ends (against buffer): > 90 fold
